Common to all, as to settings: remark: other sources report otherwise
Assay [1] has as its target recombinant soluble homotrimeric HA of A/California/4/09 (H1N1) (Influenza A virus A/California/04/2009 (H1N1)). The assay can be described thus: HA microarray, BCC supernatant.
Assay [2] concerns the target recombinant soluble homotrimeric HA of A/Japan/305/57 (H2N2) (Influenza A virus A/Japan/305/1957 (H2N2)). The assay can be described thus: HA microarray, BCC supernatant.
The target of assay [3] is recombinant soluble homotrimeric HA of A/Vietnam/1203/04 (H5N1) (Influenza A virus A/Vietnam/1203/2004 (H5N1)). The assay can be described thus: HA microarray, BCC supernatant.
Assay [4] has as its target recombinant soluble homotrimeric HA of A/Wisconsin/67/05 (H3N2) (Influenza A virus A/Wisconsin/67/2005 (H3N2)). The assay can be described thus: HA microarray, BCC supernatant.
Assay [5] has as its target recombinant soluble homotrimeric HA of A/chicken/Vietnam/NCVD-016/08 (H5N1) (Influenza A virus A/chicken/Vietnam/NCVD-016/2008 (H5N1)). The assay can be described thus: HA microarray, BCC supernatant.
The target of assay [6] is recombinant soluble homotrimeric HA, A/Anhui/1/05 (H5N1) (influenza A virus A/Anhui/1/2005 (H5N1)). The experiment in a line: microarray, trimeric HA, transfection supernatant.
Assay [7] deals with recombinant soluble homotrimeric HA, A/Hong Kong/156/97 (H5N1) (influenza A virus A/Hong Kong/156/97 (H5N1)). The assay can be described thus: microarray, trimeric HA, transfection supernatant.
For assay [8], the target named is recombinant soluble homotrimeric HA, A/chicken/Vietnam/NCVD-016/08 (H5N1) (influenza A virus A/chicken/Vietnam/NCVD-016/2008 (H5N1)). The assay can be described thus: microarray, trimeric HA, transfection supernatant.
Assay [9] has as its target recombinant soluble homotrimeric HA, A/duck/Yangzhou/02/2005 (H8N4) (influenza A virus A/duck/Yangzhou/02/2005 (H8N4)). The assay can be described thus: microarray, trimeric HA, transfection supernatant.
For assay [10], the target named is recombinant homotrimeric HA, A/California/4/09 H1N1 (Influenza A virus A/California/4/09 (H1N1)). The assay can be described thus: trimeric HA microarray; transfection supernatant set 5.
In assay [11] the target is recombinant soluble homotrimeric HA of A/Egypt/3300-NAMRU3/08 (H5N1) (Influenza A virus A/Egypt/3300-NAMRU3/2008 (H5N1)). The experiment in a line: HA microarray, BCC supernatant.
For assay [12], the target named is recombinant soluble homotrimeric HA of A/Indonesia/5/05 (H5N1) (Influenza A virus A/Indonesia/5/2005 (H5N1)). The experiment in a line: HA microarray, BCC supernatant.
Assay [13] has as its target recombinant soluble homotrimeric HA of A/Netherlands/219/03 (H7N7) (Influenza A virus A/Netherlands/219/03 (H7N7)). The assay can be described thus: HA microarray, BCC supernatant.
The target of assay [14] is recombinant soluble homotrimeric HA of A/Solomon Islands/3/06 (H1N1) (Influenza A virus A/Solomon Islands/3/2006 (H1N1)). The assay can be described thus: HA microarray, BCC supernatant.
For assay [15], the target named is recombinant soluble homotrimeric HA of A/duck/Yangzhou/02/2005 (H8N4) (Influenza A virus A/duck/Yangzhou/02/2005 (H8N4)). The assay can be described thus: HA microarray, BCC supernatant.
Assay [16] deals with recombinant soluble homotrimeric HA of A/northern shoveler/California/HKWF115/2007 (H6N1) (Influenza A virus A/northern shoveler/California/HKWF115/2007 (H6N1)). The assay can be described thus: HA microarray, BCC supernatant.
For assay [17], the target named is recombinant soluble homotrimeric HA, A/northern shoveler/California/HKWF115/2007 (H6N1) (influenza A virus A/northern shoveler/California/HKWF115/2007 (H6N1)). The assay can be described thus: microarray, trimeric HA, transfection supernatant.
Assay [18] has as its target recombinant homotrimeric HA, A/Wisconsin/67/05 H3N2 (Influenza A virus A/Wisconsin/67/05 (H3N2)). The experiment in a line: trimeric HA microarray; transfection supernatant set 5.
The target in assay [19] is recombinant homotrimeric HA, A/Egypt/3300-NAMRU3/08 H5N1 (Influenza A virus A/Egypt/3300-NAMRU3/08 (H5N1)). Described as above.
Assay [20] has as its target recombinant homotrimeric HA, A/swine/Ontario/01911-2/99 H4N6 (Influenza A virus A/swine/Ontario/01911-2/99 (H4N6)). The description is as above.
For assay [21], the target named is recombinant soluble homotrimeric HA of A/Anhui/1/05 (H5N1) (Influenza A virus A/Anhui/1/2005 (H5N1)). The assay can be described thus: HA microarray, BCC supernatant.
For assay [22], the target named is recombinant homotrimeric HA, A/Japan/305/57 H2N2 (Influenza A virus A/Japan/305/57 (H2N2)). The experiment in a line: trimeric HA microarray; transfection supernatant set 3.
The target in assay [23] is recombinant homotrimeric HA, A/Vietnam/1203/04 H5N1 (Influenza A virus A/Vietnam/1203/04 (H5N1)). Described as above.
Assay [24] deals with recombinant homotrimeric HA, A/Solomon Islands/3/06 H1N1 (Influenza A virus A/Solomon Islands/3/06 (H1N1)). The description is as above.
Assay [25] concerns the target recombinant soluble homotrimeric HA, A/Netherlands/219/03 (H7N7) (influenza A virus A/Netherlands/219/03 (H7N7)). The assay can be described thus: microarray, trimeric HA, transfection supernatant.

B1: TCN-545 (5082_I15) (antibody, V domains shown)
VH: QVQLQQWGAGLLKPSETLSLSCAVFGGSFSDYYWTWIRQPPGKGLEWIGEIKHSGRTNYNPSLESRVTISVDTSKNQFSLKLSSVTAADTAIYYCARGTDPDTEGYCRSGSCSAFDFWGQGTLVTVSS
VL: EIVLTQSPGTLSLSPGERATLSCRASHFVNYRSLAWYQQTPGQVPRLLIYGASTRATGIPDRFSGSGSGTDFTLTISRLEPEDFAVYFCQQYGGSPRYTFGQGTRLEIK
As to B1, the Trimeric HA Binding RLU in [1] worked out at 365 RLU; in assay [2], 157 RLU; in [3], 235 RLU; in assay [4], 575 RLU; in [5] it was 392 RLU; in assay [6], 4880 RLU. Besides, the Trimeric HA Binding RLU in assay [7] was 1560 RLU; in assay [8], 3230 RLU; in [9] it was 13200 RLU. In addition, in [10], the Trimeric HA Binding: RLU is 818 RLU.

B2: TCN-538 (3206_O17) (antibody, V domains shown)
VH: QITLKESGPTLVKPTQTLTLTCVFSGFSLSITGVRVGWIRQPPGKALEWLALISWDDEKHYSPSLQSRLTITKDTSKNQVVLTMTNLDPVDTATYYCARSTDRGHVLRYFGWMLPGDAFDVWGQGTMVTVSS
VL: DIVMTQSPDFLPVSLGERATINCKSSQRVLYSSNNKNYLAWYQLKPGQPPKLIIYWASTRESGVPDRFSGSGSGTEFTLTISSLQAEDVAVYYCQQYYSRPYTFGQGTKLEIK
Take B2: the Trimeric HA Binding RLU is 13800 RLU in assay [1]; 23600 RLU in [11]; 26400 RLU in assay [12]; 43000 RLU in assay [2]; 6530 RLU in [13]; 33200 RLU in assay [14]. Besides, the Trimeric HA Binding RLU in [4] came out at 6900 RLU; in assay [5], 37300 RLU; in [15], 6120 RLU; in [16], 17400 RLU; in assay [7] it was 5170 RLU; in assay [8] it was 2950 RLU. In addition, the Trimeric HA Binding RLU in assay [17] came out at 8900 RLU. For the same molecule, in assay [18], the Trimeric HA Binding: RLU is 2070 RLU.

B3: TCN-539 (5056_A08) (antibody, V domains shown)
VH: QVQLVESGGGVVQPGRSLRLSCAASEITFITYAMHWVRQAPGKGLEWVALISDDGSNKFYADSVKGRFTISRDNSKNTLYLQMNSLRAEDTAAYYCAREGVYFDSGTYRGYFDYWGQETLVTVSS
VL: EIVLTQSPATLSLSPGERATLSCRASQSVSSYLAWYQQKPGQAPRLLIYDASNRATGIPARFSGSGSGTDFTLTISSLEPEDFAVYYCQQRSHWPPITFGQGTRLEIK
With B3, the Trimeric HA Binding RLU was determined as 11400 RLU in [11]; 468 RLU in assay [2]; 239 RLU in assay [14]; 545 RLU in [3]; 715 RLU in assay [4]; 100 RLU in [5]. The Trimeric HA Binding RLU came out at 3240 RLU in [6], 1450 RLU in assay [7], 3500 RLU in assay [8] and 2860 RLU in assay [17]. The Trimeric HA Binding: RLU in [19] is 24300 RLU; in [20], 6510 RLU.

B4: TCN-551 (5243_D01) (antibody, V domains shown)
VH: EVQLVQSGSEVKKPGESLKISCKGSGYSFSNYWIGWVRHMPGKGLEWMGIIYPGDSDTRYSPSFQGQVTMSADKSSSTVYLQWSSLKASDTAIYYCARRGGHSFGYGSGGDTHSEFDSWGQGTLVTVSS
VL: QSVLTQSPSVSAAPGQKVTISCSGSDSNIGDYFVCWYQHLPGKPPQLLIYENNKRPSGIPDRFSGSKSGTSATLGITGIQTGDEADYYCATWDGSLSAWVFGGGTKLTVL
As to B4, the Trimeric HA Binding RLU in assay [21] stood at 4190 RLU; in assay [1], 53400 RLU; in assay [11], 47200 RLU; in [12] it was 53500 RLU; in [2], 22600 RLU; in assay [14], 53800 RLU. The Trimeric HA Binding RLU in [3] was 4150 RLU; in assay [4], 6840 RLU; in assay [15], 9820 RLU; in [7] it was 792 RLU; in [8], 792 RLU. Besides, the figures for the Trimeric HA Binding: RLU in [19] and in [18] were 17400 RLU and 936 RLU, respectively.

B5: TCN-531 (5091_H13) (antibody, V domains shown)
VH: EVQLVESGGDLVQPGRSLKLSCTGSGFTFGDYGVTWVRQAPGKGLEWVGFIRTRPWGGTADTAASVKGRFTISRDDSKSLAYLQMNSLKTEDTAVYYCCRDAPPNVEVASMTNWYFDLWGRGTLVTVSS
VL: DIQLTQSPSSLSASVGDRVTITCRASQGILNCLAWYQQKPGKVPNLLMYAASTLQSGVPSRFSGSGFGTDFTLTISSLQPEDVATYYCQTYGGVSTFGGGTKVEIR
Regarding B5, the Trimeric HA Binding RLU turned out to be 410 RLU in [2], 7090 RLU in assay [4] and 3120 RLU in [15]. Besides, the values for the Trimeric HA Binding: RLU in [22] and in [23] were 489 RLU and 2410 RLU, respectively.

B6: TCN-529 (5297_H01) (antibody, V domains shown)
VH: QITLRESGPTLVKPTQTLTLTCTFSGFSLSTNGVNVGWIRQPPGKALEWLALIYWDDDKRYSPSLKRRLTITKDTSKNQVVLTLTNMDPVDTATYYCAHRPDFYGDFEYWGPGTLVTVSS
VL: QSALTQPASVSGSPGQSITISCTGSSSDIGGYNYVSWYQQHPGKAPKLMIYDVNNRPSGVSNRFSGSKSGNTASLTISGLQTDDEADYYCGSYTGSPHYVFGTGTKVTVL
Consider B6, for which the Trimeric HA Binding RLU in assay [2] came to 435 RLU; in assay [14], 179 RLU; in [4] it was 51600 RLU; in assay [5], 410 RLU. The Trimeric HA Binding: RLU in assay [24] is 43 RLU.

B7: TCN-547 (5092_F11) (antibody, V domains shown)
VH: QVQLQESGPGLVKPSQTLSLTCTVSGDSISSVDHYWSWIRQHPVKGLEWIGFMYYSASTYYNPSLKSRVTISTDTSKNQFSLRLSSVTAADTAVYYCARGTCAGDCSLHYYYYGLDVWGQGRTVTVSS
VL: DIQMTQSPSSLSASVGDRVTITCRASQSISSYLNWYQHKPGKAPKVLMYAVSILQSGVPSRFSGSGSGADFTLTISSLQPEDFATYYCQQSYSSPLTFGGGTKVEIK
For the molecule B7, the Trimeric HA Binding RLU in assay [1] came to 170 RLU; in assay [2], 40 RLU; in [13], 401 RLU; in assay [14], 155 RLU; in assay [4], 16900 RLU; in assay [5] it was 198 RLU. Moreover, the Trimeric HA Binding RLU in assay [15] turned out to be 278 RLU; in assay [25], 2090 RLU; in assay [8], 1320 RLU; in [9] it was 3340 RLU; in [17], 2620 RLU. The Trimeric HA Binding: RLU in [10] stood at 1470 RLU.

The values are drawn from patent US20150104459A1.
